According to patent US11306156:
Values belong to the substance of their own block, whether it stands above or below them.

Columns and labels:
[1] = target: D3H44 Fab heavy chain L143E_K145T_Q179D, ABD2-His6 tagged; test: LCCA, SPR of light chain tags; L1:L2 DNA 1:9 normalized to 1:1; competing light chain m19
[2] = target: D3H44 Fab heavy chain S186K, ABD2-His6 tagged; test: as above
[3] = target: D3H44 Fab heavy chain L143E_K145T_Q179D, ABD2-His6 tagged; test: LCCA, SPR of light chain tags; L1:L2 DNA 1:3 normalized to 1:1; competing light chain m19
[4] = target: D3H44 Fab heavy chain S186R, ABD2-His6 tagged; test: as above
[5] = target: D3H44 Fab heavy chain S186K, ABD2-His6 tagged; test: as above
[6] = target: D3H44 Fab heavy chain L143R, ABD2-His6 tagged; test: LCCA, SPR of light chain tags; L1:L2 DNA 1:9 normalized to 1:1; competing light chain m16
[7] = target: D3H44 Fab heavy chain L143E_K145T_Q179E, ABD2-His6 tagged; test: as above
[8] = target: D3H44 Fab heavy chain L143R, ABD2-His6 tagged; test: LCCA, SPR of light chain tags; L1:L2 DNA 1:3 normalized to 1:1; competing light chain m16
[9] = target: D3H44 Fab heavy chain L143E_K145T_Q179E, ABD2-His6 tagged; test: as above
[10] = target: D3H44 Fab heavy chain L124A_L143F_Q179K, ABD2-His6 tagged; test: LCCA, SPR of light chain tags; L1:L2 DNA 1:9 normalized to 1:1; competing light chain m13
[11] = target: D3H44 Fab heavy chain L124W_L143E_K145T_Q179E, ABD2-His6 tagged; test: as above
[12] = target: D3H44 Fab heavy chain L124A_L143F_Q179K, ABD2-His6 tagged; test: LCCA, SPR of light chain tags; L1:L2 DNA 1:3 normalized to 1:1; competing light chain m14
[13] = target: D3H44 Fab heavy chain L124A_Q179K, ABD2-His6 tagged; test: as above
[14] = target: D3H44 Fab heavy chain L124W_L143E_K145T_Q179E, ABD2-His6 tagged; test: as above
[15] = target: D3H44 Fab heavy chain L124W_L143F_K145T_Q179E, ABD2-His6 tagged; test: as above
[16] = target: D3H44 Fab heavy chain L124A_L143F_Q179K, ABD2-His6 tagged; test: LCCA, SPR of light chain tags; L1:L2 DNA 1:3 normalized to 1:1; competing light chain m13
[17] = target: D3H44 Fab heavy chain S186R, ABD2-His6 tagged; test: LCCA, SPR of light chain tags; L1:L2 DNA 1:9 normalized to 1:1; competing light chain m16
[18] = target: D3H44 Fab heavy chain S186K, ABD2-His6 tagged; test: as above
[19] = target: D3H44 Fab heavy chain Q179K, ABD2-His6 tagged; test: as above
[20] = target: D3H44 Fab heavy chain Q179R, ABD2-His6 tagged; test: as above
[21] = target: D3H44 Fab heavy chain S186R, ABD2-His6 tagged; test: LCCA, SPR of light chain tags; L1:L2 DNA 1:3 normalized to 1:1; competing light chain m16
[22] = target: D3H44 Fab heavy chain S186K, ABD2-His6 tagged; test: as above
[23] = target: D3H44 Fab heavy chain Q179K, ABD2-His6 tagged; test: as above
[24] = target: D3H44 Fab heavy chain Q179R, ABD2-His6 tagged; test: as above
[25] = target: D3H44 Fab heavy chain L124W_L143F_K145T_Q179E, ABD2-His6 tagged; test: LCCA, SPR of light chain tags; L1:L2 DNA 1:3 normalized to 1:1; competing light chain m15
[26] = target: D3H44 Fab heavy chain L124W_L143E_K145T_Q179E, ABD2-His6 tagged; test: LCCA, SPR of light chain tags; L1:L2 DNA 1:3 normalized to 1:1; competing light chain m12
[27] = target: D3H44 Fab heavy chain L124W_L143F_K145T_Q179E, ABD2-His6 tagged; test: as above
[28] = target: D3H44 Fab heavy chain L143E_K145T_Q179D, ABD2-His6 tagged; test: LCCA, SPR of light chain tags; L1:L2 DNA 1:9 normalized to 1:1; competing light chain m18
[29] = target: D3H44 Fab heavy chain S186K, ABD2-His6 tagged; test: as above
[30] = target: D3H44 Fab heavy chain L143E_K145T_Q179D, ABD2-His6 tagged; test: LCCA, SPR of light chain tags; L1:L2 DNA 1:3 normalized to 1:1; competing light chain m23
[31] = target: D3H44 Fab heavy chain L143E_K145T_Q179E, ABD2-His6 tagged; test: as above
[32] = target: D3H44 Fab heavy chain S186R, ABD2-His6 tagged; test: as above
[33] = target: D3H44 Fab heavy chain S186K, ABD2-His6 tagged; test: as above
[34] = target: D3H44 Fab heavy chain L143E_K145T_Q179D, ABD2-His6 tagged; test: LCCA, SPR of light chain tags; L1:L2 DNA 1:3 normalized to 1:1; competing light chain m18
[35] = target: D3H44 Fab heavy chain S186R, ABD2-His6 tagged; test: as above
[36] = target: D3H44 Fab heavy chain S186K, ABD2-His6 tagged; test: as above

Substance: D3H44 light chain Q124E_V133E, HA or FLAG tagged
H2L2:H2L1 normalized median ratio [6]: 89% | H1L1:H1L2 normalized median ratio [7]: 8% | H2L2:H2L1 normalized median ratio [8]: 95% | H1L1:H1L2 normalized median ratio [9]: 7%

Substance: D3H44 light chain Q124E_V133W_S176T_T178E_T180E, HA or FLAG tagged
H1L1:H1L2 normalized median scalar value ln(r1/f1) [10]: 2.69 | H2L2:H2L1 normalized median ratio [11]: 8% | H1L1:H1L2 normalized median ratio [12]: 97% | H1L1:H1L2 normalized median scalar value ln(r1/f1) [12]: 3.61 | H1L1:H1L2 normalized median ratio [13]: 97% | H1L1:H1L2 normalized median scalar value ln(r1/f1) [13]: 3.59 | H2L2:H2L1 normalized median ratio [14]: 22% | H2L2:H2L1 normalized median ratio [15]: 30% | H1L1:H1L2 normalized median ratio [16]: 95% | H1L1:H1L2 normalized median scalar value ln(r1/f1) [16]: 2.88

Substance: D3H44 light chain Q124E_Q160E_T178E, HA or FLAG tagged
H1L1:H1L2 normalized median ratio [7]: 10% | H2L2:H2L1 normalized median ratio [17]: 87% | H2L2:H2L1 normalized median ratio [18]: 90% | H2L2:H2L1 normalized median ratio [19]: 84% | H2L2:H2L1 normalized median ratio [20]: 86% | H1L1:H1L2 normalized median ratio [9]: 9% | H2L2:H2L1 normalized median ratio [21]: 94% | H2L2:H2L1 normalized median ratio [22]: 98% | H2L2:H2L1 normalized median ratio [23]: 95% | H2L2:H2L1 normalized median ratio [24]: 95%

Substance: D3H44 light chain Q124E_T180E, HA or FLAG tagged
H1L1:H1L2 normalized median ratio [28]: 11% | H2L2:H2L1 normalized median ratio [29]: 95% | H1L1:H1L2 normalized median ratio [30]: 16% | H1L1:H1L2 normalized median ratio [31]: 16% | H2L2:H2L1 normalized median ratio [32]: 97% | H2L2:H2L1 normalized median ratio [33]: 97% | H1L1:H1L2 normalized median ratio [34]: 15% | H2L2:H2L1 normalized median ratio [35]: 97% | H2L2:H2L1 normalized median ratio [36]: 98% | H1L1:H1L2 normalized median ratio [9]: 15% | H2L2:H2L1 normalized median ratio [21]: 96%

Continued, values first:

H1L1:H1L2 normalized median ratio [1]: 89% | H1L1:H1L2 normalized median scalar value ln(r1/f1) [1]: 2.05 | H2L2:H2L1 normalized median ratio [2]: 5% | H1L1:H1L2 normalized median ratio [3]: 85% | H1L1:H1L2 normalized median scalar value ln(r1/f1) [3]: 1.74 | H2L2:H2L1 normalized median ratio [4]: 3% | H2L2:H2L1 normalized median ratio [5]: 2%
Substance: D3H44 light chain Q124K_T178R, HA or FLAG tagged

H2L2:H2L1 normalized median ratio [25]: 69% | H2L2:H2L1 normalized median ratio [26]: 78% | H2L2:H2L1 normalized median ratio [27]: 70%
Substance: D3H44 light chain S131K_V133A_S176T_T178L, HA or FLAG tagged
